Common to all, as to experiment: cell_activity
In series [1] the test system is ZFN.gfp (CompoZr zinc finger nuclease heterodimer ZFN.gfp.1/ZFN.gfp.2) (synthetic). The following applies: yeast, three integrated target copies; 0 of 96 with empty vector; monomer to half-site assignment not stated; scale: of 96 colonies with all three loci replaced.
In series [2] the test system is SFC1-specific ZFN (synthetic). Conditions: yeast, pCUT015 alone; 76% with dual nuclease plasmid pCUT032.
For series [3], the system named is FS-specific TALEN (synthetic). The following applies: yeast; 3 clones single, 1 double integration; half-sites not stated; scale: clone of 48 with all three ADS cassettes integrated.
In series [4] the test system is YJR030c-specific ZFN (synthetic). Conditions: yeast, pCUT016 alone; 63% with dual nuclease plasmid pCUT032.

“ACAACTACAACAGCCACAACGTCTATATCATGGCCGACAAGCA (double strand) [ZFN.gfp target in emgfp-delta]” showed an activity in series [1] of 23.

SFC1 ORF target: the activity (% GFP-positive) in series [2] amounted to 50.

“TAGTGGAGGAATTAAAAGAGGAAGTTAAGAAGGAATTGATAACTATCAA (double strand) [FS TALEN target site]” yielded an activity in series [3] of 1.

YJR030c ORF target: the activity (% ADE2-positive) in series [4] was determined as 5.

These data come from patent US20120277120.
